From the RNAGym collection of RNA variant scans (doi:10.7554/elife.80360)

B1: Hairpin Ribozyme (parent)
chain: GUCCUCUUUCACGUGCGCGUGAAAGAGAGAAGUGAACCAGAGAAACACACGUUGUGGUAUAUUACCUGGUA

Variants of: B1
Assay: self-cleavage, relative activity (ratio to wild type); higher = more cleavage; co-transcriptional

Variant	self-cleavage
GUCCUAUUUCACGUGCGAGUGAAAGAGAGAAGUGAACCAGAGAAACACACGUUGUGGUAUAUUACCUGGUA [C6A C18A]	0.649
GCCCUCUUUCACGUGCGCGUGAAAGAGAGAAGUGAACCAGAGAAAGACACGUUGUGGUAUAUUACCUGGUA [U2C C46G]	0.0408
GUCCUCUUUCACGUGCGCGUGAAAGAGAGAAGUAAACCAGAGAAACACACGUUGAGGUAUAUUACCUGGUA [G34A U55A]	0.518
GUCCUCUUUCACGUGCGCGUGCAAGAGAGAAGUGAACCAGAGAACCACACGUUGUGGUAUAUUACCUGGUA [A22C A45C]	0.128
GUCCUCUUUCACGUGCGCUUGAAAGAGAGAAAUGAACCAGAGAAACACACGUUGUGGUAUAUUACCUGGUA [G19U G32A]	0.124
AUCCUCUUUUACGUGCGCGUGAAAGAGAGAAGUGAACCAGAGAAACACACGUUGUGGUAUAUUACCUGGUA [G1A C10U]	0.235
GUCCUCUAUCACGUGCGCGUGAAAGAGAGAAGUGAACCAGAGAAACACACGUUGUGGUAAAUUACCUGGUA [U8A U60A]	0.755
GUCCUCUUUCAGGUGCGCGUGAAAGAGAGAAGUGAACCAGAGAAACACACGUUCUGGUAUAUUACCUGGUA [C12G G54C]	0.246
GUCCUCAUUCACGUGCGCGUGAAUGAGAGAAGUGAACCAGAGAAACACACGUUGUGGUAUAUUACCUGGUA [U7A A24U]	1.15
GUCCUCUGUCACGUGCGCGUGAAAGAGAGAAGUGAACCAGAGAAACACACGUUGUGGUAUAUUAUCUGGUA [U8G C65U]	0.363
GUCCUGUUUCACGUGCGCGUGAAAGAGAGAGGUGAACCAGAGAAACACACGUUGUGGUAUAUUACCUGGUA [C6G A31G]	0.355
GUCCUCUUUCACGUGCGCGUGAAAGAGAGAAGUGAACGAGAGAAACACACGUUGUGGUAUAUUACCUGUUA [C38G G69U]	0.155
AUCCUCUUUCACGUGCGCGUGAAAGAGAGAAGUGAACCAGAGUAACACACGUUGUGGUAUAUUACCUGGUA [G1A A43U]	0.0738
GUCCUAUUUCACGUGCGCGUGAAAGAGAGAAGUGAACCAGAGAAACACACGUUGUGGUACAUUACCUGGUA [C6A U60C]	0.793
GUCCUCUUUCACGUGCGCGUGAAAGAGAGAAGUGAACCAGAGAAACGCACGUGGUGGUAUAUUACCUGGUA [A47G U53G]	0.338
GUCCUCUUUCACGAGCGCGUGAAAGAGAGAAGUGAACCAGAGAUACACACGUUGUGGUAUAUUACCUGGUA [U14A A44U]	0.118
GUCCUCUUUCACGUGCGCGUGAAAGUGAGAAGUGAACCAGAGAAACGCACGUUGUGGUAUAUUACCUGGUA [A26U A47G]	0.142
GUCCUCUUUCACGUGCGCGUGAAAGAGAGAAGUGAACCAGAGAAACCCACGAUGUGGUAUAUUACCUGGUA [A47C U52A]	0.407
GUCCUCUUUCACGUGCGCGUGAAAGAGAGAAGUGAACCAGAGCAACACACGUUGUGCUAUAUUACCUGGUA [A43C G57C]	0.204

Variant	self-cleavage
GUCCUGUUUCACGUGCGCGUGAAAGAGCGAAGUGAACCAGAGAAACACACGUUGUGGUAUAUUACCUGGUA [C6G A28C]	0.145
GUCCUCUUUCACGUGCGCGUGAAAGAGAGAUGUGAACUAGAGAAACACACGUUGUGGUAUAUUACCUGGUA [A31U C38U]	0.157
GUCCUCUUUUACGUGCGCGUGAAAGAGAGAAGUGAACCAGAGAAAAACACGUUGUGGUAUAUUACCUGGUA [C10U C46A]	0.15
GUCCUCUUUCACGUGCGCGUGAAAGAGAGGAGUAAACCAGAGAAACACACGUUGUGGUAUAUUACCUGGUA [A30G G34A]	0.164
GUUCUCUUUCACGUGCGCGUGAAAGAGAGAAGUGAACCACAGAAACACACGUUGUGGUAUAUUACCUGGUA [C3U G40C]	0.0768
GUCCUCUUUCACGUGCGCGUGAAAGAGAGAAGUGAACCAGAGAACCAUACGUUGUGGUAUAUUACCUGGUA [A45C C48U]	0.145
GUCCUCUUUCACGUGCGCGUGAAAGAGAGAAGUGAACCAGAGAAACAUACGUUGUGGUAUAUUACCUUGUA [C48U G68U]	0.097
GUCCUCUUUCACGUGCGCGUGAAAGAGAGAAGUGAACAAGAGAAACACACGUUGUGGUAAAUUACCUGGUA [C38A U60A]	0.0853
GACCUCUUUCACGUGCGCGUGAAAGAGAGAAGUGAACCAGAGAAACACACGGUGUGGUAUAUUACCUGGUA [U2A U52G]	0.203
GUCCUCUUUCACGUGCGCGUGAAAGAGAGAAGUGAACGAGAGAAACACGCGUUGUGGUAUAUUACCUGGUA [C38G A49G]	0.0605
GUCCUCUUUCACGUGCUCGUGCAAGAGAGAAGUGAACCAGAGAAACACACGUUGUGGUAUAUUACCUGGUA [G17U A22C]	0.703
GUCCUCGUUCACGUGCGCGUGAAAGGGAGAAGUGAACCAGAGAAACACACGUUGUGGUAUAUUACCUGGUA [U7G A26G]	0.821
GUUCUCUUUCACGUGCGCGUGAAAGCGAGAAGUGAACCAGAGAAACACACGUUGUGGUAUAUUACCUGGUA [C3U A26C]	0.314
GUCCUCUUUCACGUGCGCGUGAAAGAGACAAGCGAACCAGAGAAACACACGUUGUGGUAUAUUACCUGGUA [G29C U33C]	0.224
GUCCUCUUUCACGUGCGCGUGAAAGAGAGAAGUGAACCAGAGAAACACACGUUGUAGUAUAUUACCUGGAA [G56A U70A]	0.223
GUCCUCUUUCACGUGCGCGUGAAAGAGAGAAGUGAACCAGAGAAACACAGGUUGUGGUAUAUUAUCUGGUA [C50G C65U]	0.0289
GUCCUCUUUCACGUGGGCGUGAAAGAGGGAAGUGAACCAGAGAAACACACGUUGUGGUAUAUUACCUGGUA [C16G A28G]	0.959
GUCCUCAUUCACGUGCGCGUGAAAGAGAGAAGUGAACCAGAGAAACACACGUUGUGGUAUAUAACCUGGUA [U7A U63A]	0.181
GUCCUCUUUCUCGUGCGCGUGAAAGAGAGAAGUGAACCAGAGAAACACACGUUGUGGUAUAUCACCUGGUA [A11U U63C]	0.122
